Patent US12258384B2, “Fusion albumin nanoparticle and application thereof” (Jiangnan University, priority 2019, dated 2025)

Assays:
[1] = Loading of paclitaxel with recombinant fusion protein (pH response self-assembly), drug loading rate; assay type: physicochemical; details: 1 mg/ml protein, mixed at pH 5.5 with 10 mg/mL paclitaxel solution, then pH 7.4
Method: (§1) Albumin fusion protein powder freeze-dried by a freeze dryer was dissolved in a PBS buffer solution to prepare a 1 mg/ml solution, the pH was adjusted to 5.5 with a 1 mM HCl solution, after a 10 mg/mL paclitaxel solution was added, the pH was adjusted to 7.4 with a 1 mM NaOH solution, centrifugation was performed at 10000 rpm for 20 minutes, an obtained precipitate was uniformly mixed with ultrapure water and then centrifuged at 1000 rpm for 20 minutes, and the steps above were repeated 3 times to obtain a paclitaxel-loaded fusion protein nanoparticle.
A final drug loading rate was directly affected by a mixing ratio of albumin to a drug (for example, paclitaxel): Fusion albumin powder freeze-dried by a freeze dryer was dissolved in a PBS buffer solution to prepare a 1 mg/ml solution, the pH was adjusted to 5.5 with a 1 mM HCl solution, after a drug solution with a concentration of 5 mg/ml, 8 mg/ml, 12 mg/mL and 15 mg/ml was separately added, the pH was adjusted to 7.4 with a 1 mM NaOH solution, centrifugation was performed at 10000 rpm for 20 minutes, an obtained precipitate was uniformly mixed with ultrapure water and then centrifuged at 1000 rpm for 20 minutes, and the steps above were repeated 3 times to obtain a paclitaxel-loaded fusion protein nanoparticle. […]

[2] = Loading of docetaxel with recombinant fusion protein, drug loading rate; assay type: physicochemical; details: 1 mg/mL protein, mixed at pH 5.5 with 10 mg/ml docetaxel solution, then pH 7.4
Method: as §1, with “mg/mL” for “mg/ml”, “mg/ml docetaxel” for “mg/mL paclitaxel”, “a” for “a paclitaxel-loaded”

## RH: albumin fusion protein 3RGD-HSA, without His fusion
[1]
  drug loading rate (paclitaxel): 6.38%
[2]
  drug loading rate (docetaxel): 7.08%
